Assay results: article PMC3759041

Molecular target: GFP-Hace1 (HECT domain and Ankyrin repeat Containing E3 ubiquitin-protein ligase 1) (UniProt Q8IYU2)
Chain of UniProt Q8IYU2 (Q8IYU2 whole entry, the tested form may be a part): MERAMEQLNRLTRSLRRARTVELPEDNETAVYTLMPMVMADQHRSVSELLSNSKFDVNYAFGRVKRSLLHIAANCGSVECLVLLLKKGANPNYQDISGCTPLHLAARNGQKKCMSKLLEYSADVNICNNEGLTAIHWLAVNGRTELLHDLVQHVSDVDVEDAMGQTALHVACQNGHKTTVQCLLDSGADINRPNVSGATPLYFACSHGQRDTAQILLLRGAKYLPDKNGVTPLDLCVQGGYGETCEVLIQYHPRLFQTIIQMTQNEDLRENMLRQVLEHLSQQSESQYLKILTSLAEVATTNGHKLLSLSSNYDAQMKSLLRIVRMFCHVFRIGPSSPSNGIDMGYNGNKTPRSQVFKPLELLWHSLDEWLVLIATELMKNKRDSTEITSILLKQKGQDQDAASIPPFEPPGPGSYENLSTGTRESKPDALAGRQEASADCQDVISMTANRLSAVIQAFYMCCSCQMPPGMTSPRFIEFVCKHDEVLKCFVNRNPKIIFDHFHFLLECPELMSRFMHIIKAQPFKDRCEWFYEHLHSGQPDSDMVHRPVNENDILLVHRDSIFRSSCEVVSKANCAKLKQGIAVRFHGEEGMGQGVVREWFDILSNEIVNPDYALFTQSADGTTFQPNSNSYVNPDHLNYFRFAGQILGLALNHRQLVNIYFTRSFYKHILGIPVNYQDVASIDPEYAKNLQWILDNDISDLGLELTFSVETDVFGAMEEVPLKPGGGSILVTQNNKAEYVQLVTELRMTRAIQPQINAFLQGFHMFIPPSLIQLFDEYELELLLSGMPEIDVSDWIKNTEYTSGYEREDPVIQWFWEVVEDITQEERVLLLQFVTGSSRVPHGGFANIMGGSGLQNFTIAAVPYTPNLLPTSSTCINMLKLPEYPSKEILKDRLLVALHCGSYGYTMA

fraction of the total Rac1 pool bound by Hace1: < 10%
Substance: Rac1 (from UniProt P63000 1-192) (natural protein; other documents disagree on this pair)
